Measurements as given in patent US20200109211A1 (ELSALYS BIOTECH, published 2020).
One block for each binder: values may come before it.

Experiments:
[1] = target: T1, human CD160 (CD160 GPI isoform) on cells (human, UniProt O95971 25-159, GPI anchor); experiment: cell-based or functional assay
T1 sequence (looked up): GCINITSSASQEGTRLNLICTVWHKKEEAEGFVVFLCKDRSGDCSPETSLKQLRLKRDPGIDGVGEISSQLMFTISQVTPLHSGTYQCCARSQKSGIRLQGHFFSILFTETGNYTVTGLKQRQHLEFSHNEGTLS

[2] = target: T2, recombinant human CD160 protein, soluble form, with a C-terminal tag of 6 histidine residues (R&D SYSTEMS) (human, UniProt O95971 27-159, limits assumed, biotinylated with EZ-Link sulfo-NHS-LC-biotin for BLI and ELISA; not biotinylated when immobilised on the CM5 chip for SPR); experiment: BLI, biotinylated CD160 at 10 nM on streptavidin sensor, antibody 3.13-100 nM
T2 construct: domain: soluble form; Bought protein; also called hCD160-his; biotinylated CD160
T2 sequence: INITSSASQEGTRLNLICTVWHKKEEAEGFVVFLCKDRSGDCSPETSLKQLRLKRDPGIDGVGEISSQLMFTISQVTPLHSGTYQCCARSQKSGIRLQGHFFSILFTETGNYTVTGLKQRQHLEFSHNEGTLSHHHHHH
Experimental: (§1) All the experiments were carried out at 30° C. in the running buffer recommended by Fortebio (PBS with 0.1% (p/v) of bovine serum albumin (BSA) and 0.02% (v/v) Tween-20). This buffer was also used for diluting the various ligands and analytes. The samples deposited in a 96-well microplate (cat #738-0026, Dutscher) were shaken at 1000 revolutions per minute.
(§2) The dissociation constants and the association (kₒₙ) and dissociation (kdis) rate constants for each antibody were calculated by applying a 1:1 interaction model, with overall mathematical modelling of curves (fit) (Rmax bound by the sensor) on the ForteBio 9.0 data analysis software.

[3] = target: T2, recombinant human CD160 protein, …; experiment: BLI
[4] = target: T2, recombinant human CD160 protein, …; experiment: BLI (repeats Table 8)
[5] = target: T2, recombinant human CD160 protein, …; experiment: SPR (Biacore), design close to Example 2
[6] = target: T2, recombinant human CD160 protein, …; experiment: BLI, biotinylated CD160 at 10 nM on streptavidin sensor, antibody 3.13-100 nM; remark: listed apart in the source
[7] = target: T2, recombinant human CD160 protein, …; experiment: BLI (repeats Table 9)
[8] = target: T2, recombinant human CD160 protein, …; experiment: BLI, biotinylated CD160 at 10 nM on streptavidin sensor, antibody 3.13-100 nM; remark: listed apart in the source
[9] = target: T2, recombinant human CD160 protein, …; experiment: BLI (repeats Table 7)
[10] = target: T2, recombinant human CD160 protein, …; experiment: BLI, biotinylated CD160 at 10 nM on streptavidin sensor, antibody 3.13-100 nM; remark: listed apart in the source
Experimental: as §2

[11] = target: T2, recombinant human CD160 protein, …; experiment: BLI (Octet K2), biotinylated hCD160-His on streptavidin sensor, antibody as analyte
Experimental: as §1
Between the measurements, the surfaces of the biosensor were regenerated by exposing them to 3 cycles of 5 sec in 10 mM glycine, pH 2, followed by 5 sec in running buffer. The association and dissociation phases were measured for 300 seconds. All the measurements were corrected for the basic drift by subtracting a reference well with a ligand subjected only to the running buffer.
as §2

B2: F04 IgG4 S228P/R409K (antibody)
heavy: QVQLVQSGAEVKKPGASVKVSCKASGYTFSDYWMQWIRQAPGQGLEWIGAIYPGDDDARYTQKFRGRATLTADKSTSTAYMELSSLRSEDTAVYYCARRGIAAVVGGFDYWGQGTTLTVSSASTKGPSVFPLAPCSRSTSESTAALGCLVKDYFPEPVTVSWNSGALTSGVHTFPAVLQSSGLYSLSSVVTVPSSSLGTKTYTCNVDHKPSNTKVDKRVESKYGPPCPPCPAPEFLGGPSVFLFPPKPKDTLMISRTPEVTCVVVDVSQEDPEVQFNWYVDGVEVHNAKTKPREEQFNSTYRVVSVLTVLAQDWLNGKEYKCKVSNKGLPSSIEKTISKAKGQPREPQVYTLPPSQEEMTKNQVSLTCLVKGFYPSDIAVEWESNGQPENNYKTTPPVLDSDGSFFLYSKLTVDKSRWQEGNVFSCSVMHEALHNQYTQKSLSLSLG
light: EIVLTQSPATLSLSPGERATLSCRASQSISNHLHWYQQKPGQAPRLLIKYASQSISGIPARFSGSGSGTDFTLTISSLEPEDFAVYFCQQSNSWPLTFGGGTKVEIKRTVAAPSVFIFPPSDEQLKSGTASVVCLLNNFYPREAKVQWKVDNALQSGNSQESVTEQDSKDSTYSLSSTLTLSKADYEKHKVYACEVTHQGLSSPVTKSFNRGEC
notes: also called ELB01106
Gain in KD/respective IgG [3]: 1.8 fold
Kd [4]: 1.63 nM
koff [4]: 0.000736 s⁻¹
kon [4]: 453000 M⁻¹ s⁻¹
Gain in KD/respective IgG [5]: 3.5 fold
Kd [5]: 4.1 nM
koff [5]: 0.000721 s⁻¹
kon [5]: 176000 M⁻¹ s⁻¹
Kd [6]: 1.63 nM
koff [6]: 0.000736 s⁻¹
kon [6]: 453000 M⁻¹ s⁻¹

B3: H7 IgG4 S228P/R409K/H310A/H435Q (antibody)
heavy: QVQLVQSGAEVKKPGASVKVSCKASGYTFTDYWMQWIRQAPGQGLEWIGSIYPGDDDARYTQKFRGRATLTADKSTSTAYMELSSLRSEDTAVYYCARRGIAAVVGGFDYWGQGTTLTVSSASTKGPSVFPLAPCSRSTSESTAALGCLVKDYFPEPVTVSWNSGALTSGVHTFPAVLQSSGLYSLSSVVTVPSSSLGTKTYTCNVDHKPSNTKVDKRVESKYGPPCPPCPAPEFLGGPSVFLFPPKPKDTLMISRTPEVTCVVVDVSQEDPEVQFNWYVDGVEVHNAKTKPREEQFNSTYRVVSVLTVLAQDWLNGKEYKCKVSNKGLPSSIEKTISKAKGQPREPQVYTLPPSQEEMTKNQVSLTCLVKGFYPSDIAVEWESNGQPENNYKTTPPVLDSDGSFFLYSKLTVDKSRWQEGNVFSCSVMHEALHNQYTQKSLSLSLG
light: EIVLTQSPATLSLSPGERATLSCRASQSISNHLHWYQQKPGQAPRLLIKYASQSISGIPARFSGSGSGTDFTLTISSLEPEDFAVYFCQQSNSWPLTFGGGTKVEIKRTVAAPSVFIFPPSDEQLKSGTASVVCLLNNFYPREAKVQWKVDNALQSGNSQESVTEQDSKDSTYSLSSTLTLSKADYEKHKVYACEVTHQGLSSPVTKSFNRGEC
notes: also called ELB01102; H7 IgG4 H310A-H435Q
Kd [4]: 2.91 nM
koff [4]: 0.00148 s⁻¹
kon [4]: 507000 M⁻¹ s⁻¹
Kd [5]: 14.5 nM
koff [5]: 0.00297 s⁻¹
kon [5]: 205000 M⁻¹ s⁻¹
Kd [6]: 2.91 nM
koff [6]: 0.00148 s⁻¹
kon [6]: 507000 M⁻¹ s⁻¹

B4: F04 in the IgG1 format (antibody)
heavy: not shown
light: EIVLTQSPATLSLSPGERATLSCRASQSISNHLHWYQQKPGQAPRLLIKYASQSISGIPARFSGSGSGTDFTLTISSLEPEDFAVYFCQQSNSWPLTFGGGTKVEIKRTVAAPSVFIFPPSDEQLKSGTASVVCLLNNFYPREAKVQWKVDNALQSGNSQESVTEQDSKDSTYSLSSTLTLSKADYEKHKVYACEVTHQGLSSPVTKSFNRGEC
notes: also called ELB02103
Gain in KD/respective IgG [3]: 2.1 fold
EC50 of NK cell activation (IFN-γ, CD69), improvement against ELB02101 [1]: 2 to 3 logs
Kd [7]: 1.43 nM
koff [7]: 0.000531 s⁻¹
kon [7]: 371000 M⁻¹ s⁻¹
Gain in KD/respective IgG [5]: 3.3 fold
Kd [5]: 3.6 nM
koff [5]: 0.000726 s⁻¹
kon [5]: 200000 M⁻¹ s⁻¹
Kd [8]: 1.43 nM
koff [8]: 0.000531 s⁻¹
kon [8]: 371000 M⁻¹ s⁻¹

B7: chimerized antibody issued from CL1-R2 in the human IgG4 format (antibody, V domains shown)
VH: QVHLQQSGAELARPGASVKLSCKASGYTFTDYWMQWIKQRPGQGLEWIGSIYPGDDDARYTQKFRGKATLTADKSSSTAYMQLSSLASEDSAVYYCARRGIAAVVGGFDYWGQGTTLTVSS
VL: DIVLTQSPATLSVTPGNSVSLSCRASQSISNHLHWYQQKSHESPRLLIKYASQSISGIPSRFSGSGSGTDFTLSINSVETEDFGMYFCQQSNSWPLTFGAGTKLELK
notes: also called chIgG4; chimeric IgG4
Binding response, at 50 nM of anti-CD160 [11]: 0.41 nm (arbitrary units)
Kd [11]: 14.8 nM
koff [11]: 0.00323 s⁻¹
kon [11]: 218000 M⁻¹ s⁻¹

Continued, values first:

EC50 of IFN-gamma production by NK cells, additional improvement against the IgG1 variants [1]: 2 logs
EC50 of IFN-gamma production by NK cells, improvement against ELB02101 [1]: 4 logs
Kd [2]: 1.55 nM
koff [2]: 0.000662 s⁻¹
kon [2]: 427000 M⁻¹ s⁻¹
B1: F04 in the IgG1 E345K format (antibody)
heavy: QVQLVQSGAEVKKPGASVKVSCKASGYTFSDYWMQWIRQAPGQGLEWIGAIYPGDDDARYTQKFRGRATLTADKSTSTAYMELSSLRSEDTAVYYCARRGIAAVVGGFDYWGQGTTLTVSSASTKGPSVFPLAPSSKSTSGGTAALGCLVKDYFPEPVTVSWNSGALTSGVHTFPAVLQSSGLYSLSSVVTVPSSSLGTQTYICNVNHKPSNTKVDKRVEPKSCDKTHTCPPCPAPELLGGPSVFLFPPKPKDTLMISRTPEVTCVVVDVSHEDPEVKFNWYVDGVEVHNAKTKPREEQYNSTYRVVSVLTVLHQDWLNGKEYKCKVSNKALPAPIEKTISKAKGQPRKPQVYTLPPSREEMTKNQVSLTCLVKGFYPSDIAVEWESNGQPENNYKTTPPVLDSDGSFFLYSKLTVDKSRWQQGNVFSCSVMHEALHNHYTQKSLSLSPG
light: EIVLTQSPATLSLSPGERATLSCRASQSISNHLHWYQQKPGQAPRLLIKYASQSISGIPARFSGSGSGTDFTLTISSLEPEDFAVYFCQQSNSWPLTFGGGTKVEIKRTVAAPSVFIFPPSDEQLKSGTASVVCLLNNFYPREAKVQWKVDNALQSGNSQESVTEQDSKDSTYSLSSTLTLSKADYEKHKVYACEVTHQGLSSPVTKSFNRGEC
notes: also called ELB02113

Kd [9]: 2.61 nM
koff [9]: 0.00123 s⁻¹
kon [9]: 469000 M⁻¹ s⁻¹
Kd [5]: 13.1 nM
koff [5]: 0.00285 s⁻¹
kon [5]: 218000 M⁻¹ s⁻¹
Kd [10]: 2.61 nM
koff [10]: 0.00123 s⁻¹
kon [10]: 469000 M⁻¹ s⁻¹
Binding response, at 50 nM of anti-CD160 [11]: 0.6 nm (arbitrary units)
Kd [11]: 4.49 nM
koff [11]: 0.00157 s⁻¹
kon [11]: 350000 M⁻¹ s⁻¹
B5: H7 IgG4 S228P/R409K (antibody)
heavy: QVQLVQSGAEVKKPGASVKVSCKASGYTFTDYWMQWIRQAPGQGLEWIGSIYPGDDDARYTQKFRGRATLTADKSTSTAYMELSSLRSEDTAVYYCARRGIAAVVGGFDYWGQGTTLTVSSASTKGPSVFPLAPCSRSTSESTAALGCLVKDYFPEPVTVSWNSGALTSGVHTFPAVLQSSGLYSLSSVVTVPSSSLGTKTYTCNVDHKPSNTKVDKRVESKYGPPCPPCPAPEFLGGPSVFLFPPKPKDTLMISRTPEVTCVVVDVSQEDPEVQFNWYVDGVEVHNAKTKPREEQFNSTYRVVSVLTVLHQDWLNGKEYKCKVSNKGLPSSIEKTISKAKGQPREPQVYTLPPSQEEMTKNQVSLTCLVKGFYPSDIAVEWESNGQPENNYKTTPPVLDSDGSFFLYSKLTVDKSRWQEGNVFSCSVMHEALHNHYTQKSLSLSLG
light: EIVLTQSPATLSLSPGERATLSCRASQSISNHLHWYQQKPGQAPRLLIKYASQSISGIPARFSGSGSGTDFTLTISSLEPEDFAVYFCQQSNSWPLTFGGGTKVEIKRTVAAPSVFIFPPSDEQLKSGTASVVCLLNNFYPREAKVQWKVDNALQSGNSQESVTEQDSKDSTYSLSSTLTLSKADYEKHKVYACEVTHQGLSSPVTKSFNRGEC
notes: also called ELB01101; H7 IgG4 WT

Binding response, at 50 nM of anti-CD160 [11]: 0.41 nm (arbitrary units)
Kd [11]: 14.3 nM
koff [11]: 0.00297 s⁻¹
kon [11]: 208000 M⁻¹ s⁻¹
B6: chimerized antibody issued from CL1-R2 in the human IgG1 format (antibody, V domains shown)
VH: QVHLQQSGAELARPGASVKLSCKASGYTFTDYWMQWIKQRPGQGLEWIGSIYPGDDDARYTQKFRGKATLTADKSSSTAYMQLSSLASEDSAVYYCARRGIAAVVGGFDYWGQGTTLTVSS
VL: DIVLTQSPATLSVTPGNSVSLSCRASQSISNHLHWYQQKSHESPRLLIKYASQSISGIPSRFSGSGSGTDFTLSINSVETEDFGMYFCQQSNSWPLTFGAGTKLELK
notes: also called chIgG1; chimeric IgG1

Binding response, at 50 nM of anti-CD160 [11]: 0.6 nm (arbitrary units)
Kd [11]: 15.4 nM
koff [11]: 0.00283 s⁻¹
kon [11]: 183000 M⁻¹ s⁻¹
B8: CL1-R2 murine monoclonal anti-human CD160 antibody (antibody, V domains shown)
VH: QVHLQQSGAELARPGASVKLSCKASGYTFTDYWMQWIKQRPGQGLEWIGSIYPGDDDARYTQKFRGKATLTADKSSSTAYMQLSSLASEDSAVYYCARRGIAAVVGGFDYWGQGTTLTVSS
VL: DIVLTQSPATLSVTPGNSVSLSCRASQSISNHLHWYQQKSHESPRLLIKYASQSISGIPSRFSGSGSGTDFTLSINSVETEDFGMYFCQQSNSWPLTFGAGTKLELK
notes: Murine IgG1; also called parental CL1-R2; murine anti-CD160 IgG1
